Source: the RNAGym collection of RNA variant scans (doi:10.1093/nar/gkz1192)

B1: CPEB3 Ribozyme (parent)
chain: UAACAGGGGGCCACAGCAGAAGCGUUCACGUCGCAGCCCCUGUCAGAUUCUGGUGAAUCUGCGAAUUCUGCUGUAUAUCUC

Variants of: B1
Experiment: self-cleavage, relative activity (ratio to wild type); higher = more cleavage; in vitro, sequencing
Method in brief: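 Libraries of CPEB3 self-cleaving ribozyme mutants came from rounds of error-prone PCR and carried barcodes, which DNA sequencing matched to variants. In vitro transcription used T7 RNA polymerase at 37°C for 5 hours, with a further 15 min in DNase I before EDTA stopped the reaction; the ribozymes cleaved during both steps. The RNA was reverse transcribed with template switching and sequenced on Illumina. Relative activity is the cleaved/total read fraction of a variant divided by that of the unmutated ribozyme, averaged over three batches with at least 5 reads.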

Variant | self-cleavage
UAACAGGGGGCCACUGCAGAAGCGUUCACGUCGCAGCCCCUGUCAGAUUCUGGUGAAUCUGCGAAUUCUGCUGUAUAUGUC [A15U C79G] | 1.08
UAACAGGGGGCCACUGCAGAAGCGUUCACGUCGCAGCCCCUGUCAGAUUCUGGUGAAUCUGCGAAUUCUGCUGUAUAUAUC [A15U C79A] | 1.03
UAACAGGGGGCCACUGCAGAAGCGUUCACGUCGCAGCCCCUGUCAGAUUCUGGUGAAUCUGCGAAUUCUGCUGUAUAUUUC [A15U C79U] | 1.14
UAACAGGGGGCCACUGCAGAAGCCUUCACGUCGCAGCCCCUGUCAGAUUCUGGUGAAUCUGCGAAUUCUGCUGUAUAUCUC [A15U G24C] | 0.08
UAACAGGGGGCCACUGCAGAAGCGUUCACGUCGCAGCCCCUGUCAGAUUCUGGUAAAUCUGCGAAUUCUGCUGUAUAUCUC [A15U G55A] | 0.46
UAACAGGGGGCCACUGCAGAAGCGUUCACGUCGCAGCCCCUGUCAGAUUCUGGUUAAUCUGCGAAUUCUGCUGUAUAUCUC [A15U G55U] | 0.68
UAACAGGGGGCCACUGCAGAAGCGUUCACGUCGCAGCCCCUAUCAGAUUCUGGUGAAUCUGCGAAUUCUGCUGUAUAUCUC [A15U G42A] | 0.61
UAACAGGGGGCCACUGCAGAACCGUUCACGUCGCAGCCCCUGUCAGAUUCUGGUGAAUCUGCGAAUUCUGCUGUAUAUCUC [A15U G22C] | 0.06
UAACAGGGGGCCACUGCAGAAGCGUUCACGUCGCAGCCCCGGUCAGAUUCUGGUGAAUCUGCGAAUUCUGCUGUAUAUCUC [A15U U41G] | 0.26
UAACAGGGGGCCACUGCAGAAGCGUUCACGUCGCAGCCCCAGUCAGAUUCUGGUGAAUCUGCGAAUUCUGCUGUAUAUCUC [A15U U41A] | 0.17
UAACAGGGGGCCACUGCAGAAGCGUUCACGUCGCAGCCCCCGUCAGAUUCUGGUGAAUCUGCGAAUUCUGCUGUAUAUCUC [A15U U41C] | 0.92
UAACAGGGGGCCACUGCAGAAGCGUUCACGUCGCAGCCCCUGUCAGAUUCUGGUGAAUCUACGAAUUCUGCUGUAUAUCUC [A15U G61A] | 0.37
UAACAGGGGGCCACUGCAGAAGCGUUCACGUCGCAGCCCCUGUCAGAUUCUGGUGAAUCUCCGAAUUCUGCUGUAUAUCUC [A15U G61C] | 0.07
UAACAGGGGGCCACUGCAGAAGCGUUCACGUCGCAGCCCCUGUCAGAUUCUGGUGAAUCUGCUAAUUCUGCUGUAUAUCUC [A15U G63U] | 0.93
UAACAGGGGGCCACUGCAGAAGCGUUCACGUCGCAGCCCCUGUCAGAUUCUGGUGAAUCUGCAAAUUCUGCUGUAUAUCUC [A15U G63A] | 0.67
UAACAGGGGGCCACUGCAGAAGCGUUCACCUCGCAGCCCCUGUCAGAUUCUGGUGAAUCUGCGAAUUCUGCUGUAUAUCUC [A15U G30C] | 0.15
UAACAGGGGGCCACUGCAGAAGCGUUCACUUCGCAGCCCCUGUCAGAUUCUGGUGAAUCUGCGAAUUCUGCUGUAUAUCUC [A15U G30U] | 0.15
UAACAGGGGGCCACUGCAGAAGCGUUCACGUCGCAGCCCCUGUCAGAGUCUGGUGAAUCUGCGAAUUCUGCUGUAUAUCUC [A15U U48G] | 0.35
UAACAGGGGGCCACUGCAGAAGCGUUCACGUCGCAGCCCCUGUCAGAAUCUGGUGAAUCUGCGAAUUCUGCUGUAUAUCUC [A15U U48A] | 0.17
UAACAGGGGGCCACUGCAGAAGCGUUCACGUCGCAGCCCCUGUCAGACUCUGGUGAAUCUGCGAAUUCUGCUGUAUAUCUC [A15U U48C] | 0.33
UAACAGGGGGCCACUGCAGAAGCGUUCACGACGCAGCCCCUGUCAGAUUCUGGUGAAUCUGCGAAUUCUGCUGUAUAUCUC [A15U U31A] | 0.45
UAACAGGGGGCCACUGCAGAAGCGUUCACGGCGCAGCCCCUGUCAGAUUCUGGUGAAUCUGCGAAUUCUGCUGUAUAUCUC [A15U U31G] | 0.39
UAACAGGGGGCCACUGCAGAAGCGUUCACGCCGCAGCCCCUGUCAGAUUCUGGUGAAUCUGCGAAUUCUGCUGUAUAUCUC [A15U U31C] | 0.35

Variant | self-cleavage
UAACAGGGGGCCACUGCAGAAGCGUUCACGUCGCAGCCCCUGUCAGAUUCUGGUGAAUCUGCGAAUGCUGCUGUAUAUCUC [A15U U67G] | 0.11
UAACAGGGGGCCACUGCAGAAGCGUUCACGUCGCAGCCCCUGUCAGAUUCUGGUGAAUCUGCGAAUACUGCUGUAUAUCUC [A15U U67A] | 0.2
UAACAGGGGGCCACUGCAGAAGCGUUCACGUCGCAGCCCCUGUCAGAUUCUGGUGAAUCUGCGAAUCCUGCUGUAUAUCUC [A15U U67C] | 0.22
UAACAGGGGGCCACUGCAGAAGCGUUCACGUCGCACCCCCUGUCAGAUUCUGGUGAAUCUGCGAAUUCUGCUGUAUAUCUC [A15U G36C] | 0.13
UAACAGGGGGCCACUGCAGAAGCGUUCACGUCGCAUCCCCUGUCAGAUUCUGGUGAAUCUGCGAAUUCUGCUGUAUAUCUC [A15U G36U] | 0.08
UAACAGGGGGCCACUGCAGAAGCGUUCACGUCUCAGCCCCUGUCAGAUUCUGGUGAAUCUGCGAAUUCUGCUGUAUAUCUC [A15U G33U] | 0.52
UAACAGGGGGCCACUGCAGAAGCGUUCACGUCACAGCCCCUGUCAGAUUCUGGUGAAUCUGCGAAUUCUGCUGUAUAUCUC [A15U G33A] | 0.17
UAACAGGGGGCCACUGCAGAAGCGUUCACGUCGCAGCCCCUGUCAGAUUCUGGUGAAUCUGCGAAUUCUGCUGUAUAUCUA [A15U C81A] | 0.32
UAACAGGGGGCCACUGCAGAAGCGUUCACGUCGCAGCCCCUGUCAGAUUCUGGUGAAUCUGCGAAUUCUGCUGUAUAUCUU [A15U C81U] | 1.14
UAACAGGGGGCCACUGCAGAAGCGUUCACGUCGCAGCCCCUGGCAGAUUCUGGUGAAUCUGCGAAUUCUGCUGUAUAUCUC [A15U U43G] | 0.25
UAACAGGGGGCCACUGCAGAAGCGUUCACGUCGCAGCCCCUGACAGAUUCUGGUGAAUCUGCGAAUUCUGCUGUAUAUCUC [A15U U43A] | 0.88
UAACAGGGGGCCACUGCAGAAGCGUUCACGUCGCAGCCCCUGCCAGAUUCUGGUGAAUCUGCGAAUUCUGCUGUAUAUCUC [A15U U43C] | 0.41
UAACAGGGGGCCACUGCAGAAGCGUUCACGUCGCAGCCCCUGUCAGAUUCUGGUGAAUCUGCGAACUCUGCUGUAUAUCUC [A15U U66C] | 0.23
UAACAGGGGGCCACUGCAGAAGCGUUCACGUCGCAGCCCCUGUCAGAUUCUGGUGAAUCUGCGAAAUCUGCUGUAUAUCUC [A15U U66A] | 0.34
UAACAGGGGGCCACUGCAGAAGCGUCCACGUCGCAGCCCCUGUCAGAUUCUGGUGAAUCUGCGAAUUCUGCUGUAUAUCUC [A15U U26C] | 0.25
UAACAGGGGGCCACUGCAGAAGCGUACACGUCGCAGCCCCUGUCAGAUUCUGGUGAAUCUGCGAAUUCUGCUGUAUAUCUC [A15U U26A] | 0.54
UAACAGGGGGCCACUGCAGAAGCGUGCACGUCGCAGCCCCUGUCAGAUUCUGGUGAAUCUGCGAAUUCUGCUGUAUAUCUC [A15U U26G] | 0.44
UAACAGGGGGCCACUGCAGAAGCGUUCACGUCGCAGCCCCUGUCAGAUUCUGGUGAAUCUGCGAAUUCAGCUGUAUAUCUC [A15U U69A] | 0.25
UAACAGGGGGCCACUGCAGAAGCGUUCACGUCGCAGCCCCUGUCAGAUUCUGGUGAAUCUGCGAAUUCCGCUGUAUAUCUC [A15U U69C] | 0.35
UAACAGGGGGCCACUGCAGAAGCGUUCACGUCGCAGCCCCUGUCAGAUUCCGGUGAAUCUGCGAAUUCUGCUGUAUAUCUC [A15U U51C] | 0.54
UAACAGGGGGCCACUGCAGAAGCGUUCACGUCGCAGCCCCUGUCAGAUUCGGGUGAAUCUGCGAAUUCUGCUGUAUAUCUC [A15U U51G] | 0.89
UAACAGGGGGCCACUGCAGAAGCGUUCACGUCGCAGCCCCUGUCAGAUUCAGGUGAAUCUGCGAAUUCUGCUGUAUAUCUC [A15U U51A] | 0.82
UAACAGGGGGCCACUGCAGAAGCGUUCACGUCGCAGCCCCUGUCAGAUUCUGGUGAAUCUGCGAAUUCUGCUUUAUAUCUC [A15U G73U] | 1.17

Variant | self-cleavage
UAACAGGGGGCCACUGCAGAAGCGUUCACGUCGCAGCCCCUGUCAGAUUCUGGUGAAUCUGCGAAUUCUGCUAUAUAUCUC [A15U G73A] | 1.24
UAACAGGGGGCCACUGCAGAAGCGUUCACGUCGCAGCCCCUGUCAGAUUCUGGUGAAACUGCGAAUUCUGCUGUAUAUCUC [A15U U58A] | 0.16
UAACAGGGGGCCACUGCAGAAGCGUUCACGUCGCAGCCCCUGUCAGAUUCUGGUGAACCUGCGAAUUCUGCUGUAUAUCUC [A15U U58C] | 0.26
UAACAGGGGGCCACUUCAGAAGCGUUCACGUCGCAGCCCCUGUCAGAUUCUGGUGAAUCUGCGAAUUCUGCUGUAUAUCUC [A15U G16U] | 0.3
UAACAGGGGGCCACUACAGAAGCGUUCACGUCGCAGCCCCUGUCAGAUUCUGGUGAAUCUGCGAAUUCUGCUGUAUAUCUC [A15U G16A] | 0.57
UAACAGGGGGCCACUGCAGAAGCGUUCACGUCGCAGCCCCUGUCAGAUUCUGGUGAAUCUGCGAAUUCUGUUGUAUAUCUC [A15U C71U] | 0.33
UAACAGGGGGCCACUGCAGAAGCGUUCACGUCGCAGCCCCUGUCAGAUUCUAGUGAAUCUGCGAAUUCUGCUGUAUAUCUC [A15U G52A] | 1.05
UAACAGGGGGCCACUGCAGAAGCGUUCACGUCGCAGCCCCUGUCAGAUUCUGGUGAAUCUGCGAAUUCUACUGUAUAUCUC [A15U G70A] | 0.32
UAACAGGGGGCCACUGCAGAAGCGUUCACGUCGCAGCCCCUGUCAGAUUCUGGUGAAUCUGCGAAUUCUCCUGUAUAUCUC [A15U G70C] | 0.17
UAACAGGGGGCCACUGCAGAAGCGUUCACGUCGCAGCCCCUGUCAGAUUCUGGUGAAUCAGCGAAUUCUGCUGUAUAUCUC [A15U U60A] | 0.32
UAACAGGGGGCCACUGCAGAAGCGUUCACGUCGCAGCCCCUGUCAGAUUCUGGUGAAUCCGCGAAUUCUGCUGUAUAUCUC [A15U U60C] | 0.31
UAACAGGGGGCCACUGCAGAAGCGUUCACGUCGCAGCCCCUGUCAGAUCCUGGUGAAUCUGCGAAUUCUGCUGUAUAUCUC [A15U U49C] | 0.15
UAACAGGGGGCCACUGCAGAAGCGUUCACGUCGCAGCCCCUGUCAGAUGCUGGUGAAUCUGCGAAUUCUGCUGUAUAUCUC [A15U U49G] | 0.36
UAACAGGGGGCCACUGCAGAAGCGUUCACGUCGCAGCCCCUGUCAGAUACUGGUGAAUCUGCGAAUUCUGCUGUAUAUCUC [A15U U49A] | 0.64
UAACAGGGGGCCACUGCAGAAGCGUUCACGUCGCAGCCCCUGUCAGAUUCUGGGGAAUCUGCGAAUUCUGCUGUAUAUCUC [A15U U54G] | 0.59
UAACAGGGGGCCACUGCAGAAGCGUUCACGUCGCAGCCCCUGUCAGAUUCUGGCGAAUCUGCGAAUUCUGCUGUAUAUCUC [A15U U54C] | 0.77
UAACAGGGGGCCACUGCAGAAGCGUUCACGUCGCAGCCCCUGUCAGAUUCUGGAGAAUCUGCGAAUUCUGCUGUAUAUCUC [A15U U54A] | 0.8
UAACAGGGGGCCACUGCACAAGCGUUCACGUCGCAGCCCCUGUCAGAUUCUGGUGAAUCUGCGAAUUCUGCUGUAUAUCUC [A15U G19C] | 0.17
UAACAGGGGGCCACUGCAUAAGCGUUCACGUCGCAGCCCCUGUCAGAUUCUGGUGAAUCUGCGAAUUCUGCUGUAUAUCUC [A15U G19U] | 0.23
UAACAGGGGGCCACUGCAGAAGCGGUCACGUCGCAGCCCCUGUCAGAUUCUGGUGAAUCUGCGAAUUCUGCUGUAUAUCUC [A15U U25G] | 0.46
UAACAGGGGGCCACUGCAGAAGCGAUCACGUCGCAGCCCCUGUCAGAUUCUGGUGAAUCUGCGAAUUCUGCUGUAUAUCUC [A15U U25A] | 0.2
UAACAGGGGGCCACUGCAGAAGCGCUCACGUCGCAGCCCCUGUCAGAUUCUGGUGAAUCUGCGAAUUCUGCUGUAUAUCUC [A15U U25C] | 0.25
